US20180155451A1 (published 2018)
Where a chain is given by its changes, count along the chain named. Names may count otherwise.

T1: FcγRIIa R (extracellular domain, C-terminal His tag) (human, UniProt P12318 34-217)
T1 construct: extracellular domain; also called FcgRIIa R type; 2aR; not shown: His tag attached to the C terminus
T1 sequence (looked up): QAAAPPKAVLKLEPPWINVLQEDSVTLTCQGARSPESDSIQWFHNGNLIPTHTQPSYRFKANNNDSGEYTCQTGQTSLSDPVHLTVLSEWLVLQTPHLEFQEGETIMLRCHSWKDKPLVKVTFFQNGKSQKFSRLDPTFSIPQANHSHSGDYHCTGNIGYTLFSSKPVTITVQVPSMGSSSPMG

T2: FcγRIIb (extracellular domain, C-terminal His tag) (human, UniProt P31994 43-217)
T2 construct: extracellular domain; also called FcgRIIb; 2b; not shown: His tag attached to the C terminus
T2 sequence (looked up): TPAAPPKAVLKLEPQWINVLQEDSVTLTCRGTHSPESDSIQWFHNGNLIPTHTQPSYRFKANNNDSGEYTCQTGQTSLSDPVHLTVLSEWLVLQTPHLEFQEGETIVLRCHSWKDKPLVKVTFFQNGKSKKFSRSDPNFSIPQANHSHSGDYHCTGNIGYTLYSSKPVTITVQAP

T3: FcγRIIa H (human, UniProt P12318 34-217)
T3 construct: extracellular domain; also called FcgRIIa H type; 2aH
T3 sequence (looked up): T1 sequence (looked up) with R134H

T4: FcγRIIb (human, UniProt P31994 43-217)
T4 construct: extracellular domain; also called FcgRIIb; 2b
T4 sequence (looked up): T2 sequence (looked up)

T5: FcγRIIb extracellular domain with C-terminal His tag (human, UniProt P31994 43-217)
T5 construct: extracellular domain; also called FcgRIIb; 2b; not shown: His tag at the C terminus
T5 sequence (looked up): T2 sequence (looked up)

B1: GpH7-A5/GpH7-B3 variant D270_01G/GpL16-k0 (antibody, human IgG1, kappa)
heavy 1: not shown
heavy 2: not shown
light: DIVMTQSPLSLPVTPGEPASISCQASESLVHSNRNTYLHWYLQKPGQSPQLLIYKVSNRFSGVPDRFSGSGSGTDFTLKISRVEAEDVGVYYCSQNTHVPPTFGQGTKVEIERTVAAPSVFIFPPSDEQLKSGTASVVCLLNNFYPREAKVQWKVDNALQSGNSQESVTEQDSKDSTYSLSSTLTLSKADYEKHKVYACEVTHQGLSSPVTKSFNRGEC
notes: He Ab: the mutation stands only in the GpH7-B3-derived H chain; also called He Ab D270G
B2: GpH7-A5/GpH7-B3 variant D270_06M/GpL16-k0 (antibody, human IgG1, kappa)
heavy 1: not shown
heavy 2: not shown
light: B1 light
notes: He Ab: the mutation stands only in the GpH7-B3-derived H chain; also called He Ab D270M
B3: GpH7-A5/GpH7-B3 variant D270_03V/GpL16-k0 (antibody, human IgG1, kappa)
heavy 1: not shown
heavy 2: not shown
light: B1 light
notes: He Ab: the mutation stands only in the GpH7-B3-derived H chain; also called He Ab D270V
B4: GpH7-A5/GpH7-B3 variant P238_12R/GpL16-k0 (antibody, human IgG1, kappa)
heavy 1: not shown
heavy 2: not shown
light: B1 light
notes: Heterodimerized anti-glypican-3 IgG1; alteration in only one H chain (GpH7-B3 side); also called He Ab
B5: GpH7-A5/GpH7-B3 variant S239_16H/GpL16-k0 (antibody, human IgG1, kappa)
heavy 1: not shown
heavy 2: not shown
light: B1 light
notes: as for B4
B6: GpH7-A5/GpH7-B3 variant S239_11K/GpL16-k0 (antibody, human IgG1, kappa)
heavy 1: not shown
heavy 2: not shown
light: B1 light
notes: as for B4
B7: GpH7-A5/GpH7-B3 variant S239_12R/GpL16-k0 (antibody, human IgG1, kappa)
heavy 1: not shown
heavy 2: not shown
light: B1 light
notes: as for B4
B8: GpH7-A5/GpH7-B3 variant S239_04F/GpL16-k0 (antibody, human IgG1, kappa)
heavy 1: not shown
heavy 2: not shown
light: B1 light
notes: Heterodimerized anti-glypican-3 IgG1; also called He Ab
B9: GpH7-A5/GpH7-B3 variant P238_14T/GpL16-k0 (antibody, human IgG1, kappa)
heavy 1: not shown
heavy 2: not shown
light: B1 light
notes: as for B4
B10: GpH7-A5/GpH7-B3 variant P238_18N/GpL16-k0 (antibody, human IgG1, kappa)
heavy 1: not shown
heavy 2: not shown
light: B1 light
notes: as for B4
B11: GpH7-A5/GpH7-B3 variant S239_15Y/GpL16-k0 (antibody, human IgG1, kappa)
heavy 1: not shown
heavy 2: not shown
light: B1 light
notes: as for B4
B12: GpH7-A5/GpH7-B3 variant P238_13S/GpL16-k0 (antibody, human IgG1, kappa)
heavy 1: not shown
heavy 2: not shown
light: B1 light
notes: as for B4
B13: GpH7-A5/GpH7-B3 variant D265_04F/GpL16-k0 (antibody, human IgG1, kappa)
heavy 1: not shown
heavy 2: not shown
light: B1 light
notes: Heterodimerized anti-glypican-3 IgG1; substitution in only one H chain (the GpH7-B3 chain); also called He Ab
B14: GpH7-A5/GpH7-B3 variant D265_12R/GpL16-k0 (antibody, human IgG1, kappa)
heavy 1: not shown
heavy 2: not shown
light: B1 light
notes: as for B13

target: T6, FcγRIIIa extracellular domain with C-terminal His tag (human, UniProt P08637 17-208); experiment: ratio of He/Con_3a to He/Con_2b (FcγRIIIa over FcγRIIb), SPR relative binding
T6 construct: extracellular domain; also called FcgRIIIa; 3a; not shown: His tag at the C terminus
T6 sequence (P08637 17-208): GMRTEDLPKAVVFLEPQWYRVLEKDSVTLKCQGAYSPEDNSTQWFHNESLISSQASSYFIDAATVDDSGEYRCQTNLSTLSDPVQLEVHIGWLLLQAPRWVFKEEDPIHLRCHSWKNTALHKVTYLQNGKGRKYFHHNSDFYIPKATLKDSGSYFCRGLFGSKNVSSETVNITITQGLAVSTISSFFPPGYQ
Description: (§1) The heterodimerized antibodies He Abs in which one of the H chains was introduced with an alteration were assayed for their binding activities to each activating FcγR and inhibitory FcγR according to the method described in Example 4. […] The activating FcγRs in FIGS. 26, 27, 28, and 29 are FcγRIa, FcγRIIa (R), FcγRIIa (H), and FcγRIIIa, respectively.
(§2) Analysis of interaction between objective antibody and the FcγR was carried out using Biacore T100 (GE Healthcare). HBS-EP+ (GE Healthcare) was used as the running buffer, and the measurement temperature was set to 25° C. Chips produced by immobilizing the antigen peptide by the amine coupling method to a Series S Sencor Chip CM5 (GE Healthcare), or alternatively, chips produced by allowing preliminarily biotinylated antigen peptides to interact with and immobilize onto a Series S Sensor Chip SA (certified) (GE Healthcare) were used. Antibodies of interest were captured onto an antigen peptide-immobilized chip, and allowed to interact to each FcγR diluted with running buffer. To regenerate and repeatedly use the chip, the antibodies captured on the chip were washed off by reacting 10 mM glycine-HCl, pH 1.5.

Row | IIIa/IIb (He_3a/2b) | Binder
1 | 1.26 | B1
2 | 1.38 | B2
3 | 1.52 | B3

target: T1, FcγRIIa R (extracellular domain, …); experiment: SPR (Biacore), antibody captured on antigen-peptide chip, FcγR as analyte; relative binding amount

Row | He/Con_2aR | Binder
4 | 80.5 % of control (GpH7-A5/GpH7-B3/GpL16-k0 = 100) | B4
5 | 69.2 % of control (GpH7-A5/GpH7-B3/GpL16-k0 = 100) | B5
6 | 48.5 % of control (GpH7-A5/GpH7-B3/GpL16-k0 = 100) | B6
7 | 53.9 % of control (GpH7-A5/GpH7-B3/GpL16-k0 = 100) | B7
8 | 54.8 % of control (GpH7-A5/GpH7-B3/GpL16-k0 = 100) | B8
9 | 73.1 % of control (GpH7-A5/GpH7-B3/GpL16-k0 = 100) | B9
10 | 91.9 % of control (GpH7-A5/GpH7-B3/GpL16-k0 = 100) | B10
11 | 42.2 % of control (GpH7-A5/GpH7-B3/GpL16-k0 = 100) | B11
12 | 88.9 % of control (GpH7-A5/GpH7-B3/GpL16-k0 = 100) | B12

target: T2, FcγRIIb (extracellular domain, …); experiment: as above

Row | He/Con_2b | Binder
13 | 51.4 % of control (GpH7-A5/GpH7-B3/GpL16-k0 = 100) | B4
14 | 49.4 % of control (GpH7-A5/GpH7-B3/GpL16-k0 = 100) | B5
15 | 24.7 % of control (GpH7-A5/GpH7-B3/GpL16-k0 = 100) | B6
16 | 39.1 % of control (GpH7-A5/GpH7-B3/GpL16-k0 = 100) | B7
17 | 44.1 % of control (GpH7-A5/GpH7-B3/GpL16-k0 = 100) | B8
18 | 50.7 % of control (GpH7-A5/GpH7-B3/GpL16-k0 = 100) | B9
19 | 73.2 % of control (GpH7-A5/GpH7-B3/GpL16-k0 = 100) | B10
20 | 34.9 % of control (GpH7-A5/GpH7-B3/GpL16-k0 = 100) | B11
21 | 70.4 % of control (GpH7-A5/GpH7-B3/GpL16-k0 = 100) | B12

target: T1, FcγRIIa R (extracellular domain, …); experiment: ratio of He/Con_2aR to He/Con_2b (FcγRIIb); SPR relative binding
Description: as §1, §2

Row | He_2aR/2b (IIaR/IIb) | Binder
22 | 1.57 | B4
23 | 1.4 | B5
24 | 1.96 | B6
25 | 1.38 | B7
26 | 1.24 | B8
27 | 1.44 | B9
28 | 1.26 | B10
29 | 1.21 | B11
30 | 1.26 | B12

target: T3, FcγRIIa H; experiment: ratio of He/Con_2aH to He/Con_2b (relative SPR binding to FcγRIIa H over that of the same antibody to FcγRIIb)

Row | He_2aH/2b (IIaH/IIb) | Binder
31 | 1.28 | B13
32 | 1.87 | B14

target: T4, FcγRIIb; experiment: SPR (Biacore), antibody captured on antigen-peptide chip, FcγR as analyte; binding relative to GpH7-A5/GpH7-B3/GpL16-k0 = 100

Row | He/Con_2b | Binder
33 | 3.2 % of HeCon Ab | B13
34 | 15 % of HeCon Ab | B14

target: T3, FcγRIIa H; experiment: as above

Row | He/Con_2aH | Binder
35 | 4.1 % of HeCon Ab | B13
36 | 28 % of HeCon Ab | B14

target: T6, FcγRIIIa extracellular domain with …; experiment: SPR (Biacore), antibody captured via antigen peptide, FcγR as analyte; binding relative to GpH7-A5/GpH7-B3/GpL16-k0 = 100

Row | He/Con_3a | Binder
37 | 38.5 relative (control = 100) | B1
38 | 66.3 relative (control = 100) | B2
39 | 60.3 relative (control = 100) | B3

target: T5, FcγRIIb extracellular domain with …; experiment: as above

Row | He/Con_2b | Binder
40 | 30.5 relative (control = 100) | B1
41 | 48.2 relative (control = 100) | B2
42 | 39.5 relative (control = 100) | B3
